Experimental data from patent publication US7786348B2, “Methods for producing pathogen-resistant plants with allene oxide synthase and divinyl ether synthase, and the amino acid and nucleotide sequences thereof” (BASF Plant Science GmbH, priority 2001, dated 2010).

B1: Pp291 cDNA: complete cDNA encoding the Physcomitrella patens allene oxide synthase, used to transform barley and Arabidopsis (nucleic acid, listed as Physcomitrella patens)
DNA: ATGGCAGTCCCTTCATCCAAGCTGCCGTTGAAGGCGATTCCTGGAGACTATGGAGTCCCCTACTTCGGTGCCATAAAGGATCGACTAGACTACTTTTGGTTGCAGGGGGAGGAGCAGTTTTACCGAAGCCGGATGGCCAAGTACAATAGCACGGTGTTTCGTGTCAACATGCCGCCTGGCCCTCCAATTTCCGAACACCCTCAAGTCATCTGCCTCTTGGATCAGAAAAGCTTTCCAATTCTGTTCGACGTTAGCAAGGTTGAGAAAAAGGACGTGTTCACAGGAACATACATGCCGAGTGTGAGCTTCACCAGCGGGTACCGCGTTTGCTCCTACTTGGATCCCTCTGAGGAACGCCACACGAAGCTCAAGCAATGGTGCTTTGAAGTCATTGCGATGAACGGGCGGAACTTTCTTCCCGAGTTTCACAAGTCGATTGAAGAGTCGATGGTGCTCTGGGAGACGAGTCTGGCCAAGGGCGAGAAGACTAGCGTATCGGATGAGGTGAAACAGTTCGCGTTTAATTTCCTGATGCGCGCTGTATGCCATCACGACCCCGCTGCGCCTGGAGAATACAGCTTAGGGCGTAATGGTGGCCCGTATGCAACCGCCTGGGCAAATCCCCAGCTCGCTCCGATTGCAGGACAGACGGGTCTCCCCCATGTCGTGGAGGAGCTCGTGTTACACACCGTCCCACTCCCCTCTGCCCTGGTCAAGAAGAACTACGATGCCCTCTACAATTTCATCAAAAACTACGCCACCGAGGCGCTGGATAGGGCTGAAGCTATGGGCATCGAGCGCAATGACGCCACTGCCAACCTGCTGTTCTTCCTTTGCTTTAACGCCTACGGCGGATTCAGCATCTTCTTCCCCCTCATCACTATCCTCATTTCTTCATGCGGTCCGGAGCTCATGCACGATCTCCACGACGAAGTCACCAAGGCCGTCGCCGCCACAGATGGGAAAGTCACTCTTCAATCCATCGAGAACATGCCATTGGTGAAGTCCGTCGTCTACGAAGCTTTCCGATTCAAGCCCCCAGTGCCATACCAATACGGCAAGGCCAAGTTCGACTTCACCATAGAGAACCACGAAAACTCCTTCGAGGTCAAGAAGGGAGAAATGCTGTATGGTTATCAACCTATCGTGATGCACGACCCCAAGGTCTTCTCGGACCCAGATCAGTTTCTACCTCGACGATTCATGGGCCCCGACGGCGAGAAGCTCATCAAATACATCTTCTGGTCCAATGGTTACGAGACTGACGAGCCGACTACCGCAAACAAGCAGTGCGCCGGAAAGGACTTGGTGGTCACAATGGCGCGAGCATTCGTCGCAGAAATGTTCTTGAGATATAAAGAGTATACCCTGACCATGGAGGGCGCAGGAAATGCGACCAAGGTTTTCTTTTCCGATCTCAAAAAGTGA
modifications: CDS (1)..(1428) Pp291 Allenoxid-Synthase
notes: complete cDNA encoding the Physcomitrella patens allene oxide synthase, used to transform barley and Arabidopsis
B2: Pp364: Physcomitrella patens CYP74E divinyl ether synthase, 532 amino acids, recombinantly expressed in E. coli (protein, listed as Physcomitrella patens)
chain: MDRTLVLTCTTTCSHSAFRQSALPSNTSISVRLGTCSVRTQKRRTVVASLGNIETTSTSTVGQESNLPLREIPGSYGIPYLSQLLDRWTFFYREGEPQFWQSRMAKYGSTVIRSNMPPGWFWTDSRCIMLLDQKSYPTVFDYDKVDKYKAFAGTIMPSTEYNGGYEVCAYLDASDKKHEQLKGYCFELLKFSSSKWAREFHTAISETFNQWEGKLAQKTPALINPTLPESLFSFVINALTTARFDDSSIPDAEKPVCGDLQKWAGFQLMPVIRTGAPIYIEEMLHVAPIPASLTKGGYDKMVVFLQKYAAETLSIAEKFGLSQDEAVHNLIFFLILNAHGGFCRFLPVILREVAKNGQLQADLREEVRAAVKASGSDQVTMKAVMNDMPLVASTVFEALRFDPPVPFQYARAKKDFIIESHDARYQIKTGDFLGGVNYMVSRDPKVFTDRPNEFNARRFMGPEGDKLLAHLVWSNGRQTDETTVYTKQCAGKEIVPLTGRLLLAELFMRFDSFNIEGLEMEATFTSLTPRSD
B3: Pp291: Physcomitrella patens CYP74A allene oxide synthase, 475 amino acids, recombinantly expressed in E. coli (protein, listed as Physcomitrella patens)
chain: MAVPSSKLPLKAIPGDYGVPYFGAIKDRLDYFWLQGEEQFYRSRMAKYNSTVFRVNMPPGPPISEHPQVICLLDQKSFPILFDVSKVEKKDVFTGTYMPSVSFTSGYRVCSYLDPSEERHTKLKQWCFEVIAMNGRNFLPEFHKSIEESMVLWETSLAKGEKTSVSDEVKQFAFNFLMRAVCHHDPAAPGEYSLGRNGGPYATAWANPQLAPIAGQTGLPHVVEELVLHTVPLPSALVKKNYDALYNFIKNYATEALDRAEAMGIERNDATANLLFFLCFNAYGGFSIFFPLITILISSCGPELMHDLHDEVTKAVAATDGKVTLQSIENMPLVKSVVYEAFRFKPPVPYQYGKAKFDFTIENHENSFEVKKGEMLYGYQPIVMHDPKVFSDPDQFLPRRFMGPDGEKLIKYIFWSNGYETDEPTTANKQCAGKDLVVTMARAFVAEMFLRYKEYTLTMEGAGNATKVFFSDLKK

How the values were obtained:
[1] = tested on: pathogenic fungus or bacterium (Blumeria graminis, Pythium spec., Botrytis cinerea, Pseudomonas syringae and others); assay: Pathogen infection of transgenic Arabidopsis thaliana; type: in vivo; details: transgenic plants, sense orientation; fluorescence and light microscopy
[2] = tested on: Blumeria graminis f.sp. hordei; assay: Transient transformation of barley leaf segments, powdery mildew penetration; type: cell-based, barley cv. Pallas; details: for haustorial growth of the fungus in transformed cells: Calcofluor staining, fluorescence microscopy; for effect on total number or number of attacked GFP-expressing cells: compared with control cDNA experiments; for average % RPE value (relative penetration efficiency): deviation from average penetration efficiency of the control; for reduction of penetration efficiency by Blumeria graminis f.sp. hordei: on average, six experiments, versus control cDNA (TR), 48 hours after inoculation
Description: Barley cv. Pallas leaf segments were transformed with a cDNA of Pp291 or Pp364 which were present in the GFP expression vector (green fluorescence protein). The leaves were subsequently inoculated with the pathogenic fungus Blumeria graminis f.sp. hordei (powdery mildew of barley), and the result was analyzed after 48 hours by means of light microscopy and fluorescence microscopy. The penetration into GFP-expressing cells was assessed by detecting haustoria in live cells and by assessing the fungal development in precisely those cells. […].
The transient transformation of barley was carried out with a method which had already been described for the biloistic introduction of cDNA into epidermal cells of barley leaves (Schweizer P et al. (1999) Mol Plant Microbe Interact 12:647-54; Schweizer P et al. (2000) Plant J 2000 24:895-903). Tungsten particles with a diameter of […] (particle density 25 mg/ml) were coated with cDNA together with plasmid DNA of the vector pGFP (GFP under the control of the CaMV 35S promoter) as transformation marker. To this end, the following amount of cDNA and reporter plasmid were used for coating purposes for each bombardment: 1 mg of pGFP and 2 mg of cDNA. To prepare the microcarriers, 55 mg of tungsten particles (M 17, diameter […]; Bio-Rad, Munich) were washed twice with 1 ml of autoclave distilled water and once with 1 ml of absolute ethanol, dried and taken up in 1 ml of 50% strength glycerol (approximately 50 mg/ml stock solution). The solution was diluted with 50% strength glycerol to 25 mg/ml, mixed thoroughly before use and suspended in an ultrasonic bath. To coat the microcarriers, 1 mg of plasmid, 2 mg of cDNA (1 mL), […] of tungsten particle suspension (25 mg/ml), […] of 1 M Ca(NO3)2 solution (pH 10) per bombardment were combined dropwise with constant mixing, left to stand for 10 minutes at RT and centrifuged briefly, and […] of supernatant were removed. The remainder, which contained the tungsten particles, is resuspended (ultrasonic bath) and employed in the experiment.
Barley primary leaf segments approximately 4 cm in length were used. The tissue was placed on 0.5% Phytagar (GibcoBRLt Life Technologiest, Karlsruhe) supplemented with […] benzimidazole in Petri dishes (diameter 6.5 cm); immediately prior to the particle bombardment, the edges were covered with a stencil with a rectangular slot 2.2 cm×2.3 cm in size. One after the other, the dishes were placed on the bottom of the vacuum chamber (Schweizer P et al. (1999) Mol Plant Microbe Interact 12:647-54) above which a nylon mesh (mesh size 0.2 mm, Millipore, Eschborn) had been inserted on a perforated board (5 cm above the bottom, 11 cm underneath the macrocarrier, see hereinbelow) to act as diffuser in order to diffuse particle aggregations and to slow down the particle stream. For each bombardment, the macrocarrier (plastic sterile filter holder 13 mm, Gelman Sciences, Swinney, UK) which had been attached at the top of the chamber was loaded with […] of DNA-coated tungsten particles (microcarrier, see hereinbelow). The pressure in the chamber was reduced by 0.9 bar using a membrane vacuum pump (Vacuubrand, Wertheim), and the surface of the plant tissue was bombarded with the tungsten particles at a helium gas pressure of 9 bar. The chamber was aerated immediately thereafter.
To label transformed cells, the leaves were bombarded with the plasmid (pGFP; pUC18-based vector, CaMV 35S promoter/terminator cassette with inserted GFP gene; Schweizer P et al. (1999) Mol Plant Microbe Interact 12:647-54; provided by Dr P. Schweizer, Schweizer P, Institute of Plant Genetics IPK, Gatersleben, Germany). Before carrying out the bombardment with another plasmid, the macrocarrier was cleaned thoroughly with water in each case. […]

[3] = HPLC analysis of DNPH-derivatized volatile aldehydes; type: biochemical; details: substrates 13-HPOTE and 9-HPODE, DNPH derivatives
Excerpt: The reaction of hydroperoxides with DES gives rise to divinyl ethers which hydrolyze in an acidic environment to give aldehydes. These aldehydes are volatile. In order to identify these aldehydes which are formed, they can be derivatized with DNPH (Kohlmann et al.; 1999, Eur. J. Biochem. 260, 885-895). The hydrazones thus formed are no longer volatile and can be identified with the aid of an HPLC analysis via their retention time.

| Molecule | resistance to pathogens in comparison with the wild type [1] | haustorial growth of the fungus in transformed cells [2] | effect on total number or number of attacked GFP-expressing cells [2] | average % RPE value (relative penetration efficiency) [2] [%] | reduction of penetration efficiency by Blumeria graminis f.sp. hordei [2] [%] | formation of aldehydes in reaction mixture [3] |
| --- | --- | --- | --- | --- | --- | --- |
| Pp364 cDNA: complete cDNA encoding the Physcomitrella patens divinyl ether synthase, used to transform barley and Arabidopsis | increased resistance | no haustorial growth takes place | no effect | −30 | 44 |  |
| B1 | increased resistance | no haustorial growth takes place | no effect | −30 | 44 |  |
| B2 |  |  |  |  |  | aldehydes are formed |
| B3 |  |  |  |  |  | No aldehydes were detected |
